Test results: US20240287457A1, “COMPOSITIONS AND CELL CULTURE MEDIA FOR INCREASING NEUTROPHIL LIFESPAN” (THE CHILDREN'S MEDICAL CENTER CORPORATION, priority 2021, published 2024)

How the values were obtained:
neutrophils = conditions: 20 hours at 37° C. in anoxic culture medium with 3 mM glucose and 32 mg/mL DMOG; from about 1 day; cited from earlier work
murine neutrophils [1] = assay: In vitro neutrophil death / survival of cultured murine neutrophils; assay type: cell-based, mouse; conditions: for healthy neutrophils remaining: mouse, G-CSF alone
caspases = conditions: pan-caspase inhibitor; cited from earlier work
[2] = tested on: neutrophils purified from wild-type (WT) mice; assay: fMLP-induced neutrophil polarization (ruffling); assay type: cell-based, mouse; conditions: fMLP 1 μM, FIG. 10
Experimental: FIG. 10A is a series of images showing chemoattractant-induced neutrophil ruffling. Neutrophils (2×10^5) purified from wild-type (WT) mice were plated on LABTEK chamber slides and cultured in RPMI-1640 in the presence or absence of Rac1 inhibitor for 60 minutes. Cells were then uniformly stimulated with N-formyl-met-leu-phe (fMLP, 1 μM). Images were taken 5 minutes after the fMLP stimulation (400×). FIG. 10B is a bar graph showing the percentage of cells that ruffled or extended pseudopods, calculated from images captured 5 minutes after stimulus was added. At least 200 cells were assessed for each sample in each experiment. Data are represented as mean±SD of three experiments. **p<0.001 versus untreated neutrophils.

cells = conditions: even at extremely high concentrations; cited from earlier work
murine neutrophils [3] = assay: In vitro phagocytosis assay, murine neutrophils; assay type: cell-based, mouse; conditions: after one day of culture
Experimental: In vitro phagocytosis assay: […] pHrodo Red E. coli BioParticles or Zymosan A S. cerevisiae BioParticles (INVITROGEN) were reconstituted in phosphate-buffered saline (PBS) and opsonized with 10% serum at 37° C. for 30 minutes. Neutrophils were incubated with serum-opsonized bioparticles at a ratio of 1:10 (neutrophils:bioparticles) at 37° C. for 0.5 hours. APC-Ly6G (BIOLEGEND, 1A8, 0.2 μg/mL) or APC-CD16 (BIOLEGEND, 51.1, 0.2 μg/mL) antibody was added to the sample to label mouse or human neutrophil membranes. The labeling was achieved by incubating the samples at room temperature for 3 minutes. The number of internalized particles was counted under a spinning disk confocal microscope ([…] VOX). Phagocytosis efficiency was expressed as the percentage of neutrophils that engulfed at least one bioparticle. Phagocytosis index was expressed as the average number of internalized particles per cell. At least 200 cells were counted from random fields per coverslip for each group.

transfused neutrophils [4] = assay: In vivo recruitment of transfused neutrophils in a mouse peritonitis model; conditions: 1-day-old neutrophils
Experimental: In vivo recruitment of transfused neutrophils in a mouse peritonitis model: Freshly isolated CD45.1^+ or CLON-G-treated (1 day) GFP^+ bone marrow neutrophils were mixed (1:1, a total of 5×10^6/mouse) and injected intravenously into neutropenic recipient mice challenged with TG for 1 hour. At the indicated time points after cell injection, peritoneal cells were harvested by peritoneal cavity lavage with 5 mL of ice-cold PBS/15 mM EDTA, flushed back and forth three times. The relative amount of transfused freshly isolated CD45.1^+ and CLON-G-treated (1 day) GFP^+ neutrophils were analyzed by flow cytometry using a BD FACSCANTO II flow cytometer as described above.

transfused neutrophils [5] = assay: In vivo recruitment of transfused neutrophils in bacterial pneumonia; set-up: species or system mouse; conditions: lungs
Experimental: In vivo recruitment of transfused neutrophils in bacterial pneumonia: Freshly isolated or CLON-G-treated bone marrow neutrophils were labeled with carboxyfluorescein diacetate succinimidyl ester (CFSE, 5 μM) or seminaphthorhodafluor-1 acetate (SNARF-1, 5 μM) at 37° C. for 10 minutes; labeled cells were mixed (1:1, a total of 5×10^6/mouse) and transfused via the tail vein into the same neutropenic recipient mice challenged with 5×10^3 cfu E. coli for 4 hours. Whole lungs were homogenized 3 hours after neutrophil transfusion. The number of adoptively transferred neutrophils recruited to the lungs was analyzed using a FACSCANTO II flow cytometer and […] software. Relative recruitments of CLON-G-treated and freshly isolated neutrophils were calculated as the ratio of the indicated populations.

E. coli = assay: Neutropenia-related E. coli-induced pneumonia model (GTX); assay type: in vivo, mouse
[6] = tested on: neutrophils in the granulocyte apheresis concentrates; assay: Survival and function of neutrophils from human granulocyte apheresis concentrates; assay type: cell-based; conditions: cultured for only 1 day, FIG. 6K
Experimental: Accordingly, the donors were stimulated in the evening and granulocyte collection was carried out the next morning. Neutrophil harvesting was accomplished through the process of apheresis in which red blood cells (RBCs) and plasma were returned to the donor. To collect enough cells for GTX, standard continuous flow apheresis was performed for 1 to 1.5 hours to process 3.5 to 5 liters of blood. Citrate was used as the anticoagulant during collection and calcium gluconate was added to the return line to counteract the citrate-induced hypocalcemic symptoms in the donor. […] The purity was >97% as determined by both Wright-Giemsa staining and flow cytometry analysis with CD15 and CD16 antibodies. […] No contamination of hematopoietic progenitor cells (HPCs) was detected. […] The total initial cell number was counted using a hemocytometer before culture or treatment. At each indicated time point, the total cell number was counted again. […] Apoptotic cells were detected by Annexin V-fluorescein isothiocyanate (FITC) and propidium iodide (PI) staining using an Annexin V Detection Kit (BD BIOSCIENCES) following the manufacturer's protocol. Flow cytometry was performed using a FACSCANTO II flow cytometer and analyzed using […] software (BD BIOSCIENCES). […] Chemotaxis velocity and directionality were analyzed; see e.g., Jia et al. 2007, supra. […]

[7] = tested on: transfused human neutrophils; assay: Survival and function of transfused human neutrophils in vivo in NSG mice
human neutrophils = assay: In vitro neutrophil death / survival of cultured human neutrophils; conditions: G-CSF alone

## COC(=O)CNC(=O)C(=O)OC [DMOG, dimethyloxalylglycine]
neutrophils
  neutrophil half-life in vitro: 48 h

## C[C@H](NC(=O)C(=O)Nc1ccccc1C(C)(C)C)C(=O)N[C@@H](CC(=O)O)C(=O)COc1c(F)c(F)cc(F)c1F [Emricasan, N-[2-(1,1-dimethylethyl)phenyl]-2-oxoglycyl-N-[(1S)-1-(carboxymethyl)-2-oxo-3-(2,3,5,6-tetrafluorophenoxy)propyl]-L-Alaninamide, reference compound]
Murine neutrophils [1]; in combination with NAC, Hsp70, DFO, G-CSF, and optionally a RIPK1 inhibitor, FIG. 23, murine bone marrow neutrophils
  lifespan of cultured neutrophils: prolonged the lifespan
caspases
  activity in vitro: sub- to nanomolar

## CCN(CC)CCCC(C)Nc1nc(C)cc(Nc2ccc3nc(C)cc(N)c3c2)n1 (centres unmarked) [NSC23766]
[2]
  fMLP-induced neutrophil polarization: effectively inhibited

## CC(C)C(NC(=O)c1ccc2ccccc2n1)C(=O)NC(CC(=O)O)C(=O)COc1c(F)cccc1F (stereo not drawn) [Q-VD-Oph, Quinoline-Val-Asp-Difluorophenoxymethylketone]
cells
  toxicity to cells: not toxic

B1: G-CSF: granulocyte colony-stimulating factor (AMGEN, NEUPOGEN), PI3K/Akt pathway stimulator (protein, listed as Homo sapiens)
chain: MTPLGPASSLPQSFLLKCLEQVRKIQGDGAALQEKLCATYKLCHPEELVLLGHSLGIPWAPLSSCPSQALQLAGCLSQLHSGLFLYQGLLQALEGISPELGPTLDTLQLDVADFATTIWQQMEELGMAPALQPTQGAMPAFASAFQRRAGGVLVASHLQSFLEVSYRVLRHLAQP
Murine neutrophils [1]; after 1 day of treatment
  healthy neutrophils remaining: ~40%
Murine neutrophils [1]; after 3 days of treatment
  healthy neutrophils remaining: ~15%
Murine neutrophils [3]
  phagocytosis efficiency: lower
Transfused neutrophils [4]
  recruitment efficiency compared to fresh neutrophils: reduced recruitment efficiency
Transfused neutrophils [5]
  recruitment efficiency compared to fresh neutrophils: reduced recruitment efficiency
E. coli; inflamed lungs, ELISA
  inflammatory cytokine concentrations (TNF-α, IL-6): unable to reduce inflammatory cytokine concentrations
E. coli; lung, transfusion of treated neutrophils
  edema formation: failed to produce the same protective effect
E. coli; transfusion of treated neutrophils, 5×10^3 cfu E. coli
  bacteria-killing capacity in neutropenic recipient mice: ineffective
E. coli; transfusion of treated neutrophils, compared with fresh neutrophils
  BALF protein concentrations: remained high
[6]
  reduction in relative bacterial killing capability: more than 50%
[7]; 1 and 2 hours post transfusion
  recruitment of transfused human neutrophils to the inflamed peritoneal cavity: lower
[7]; injected into inflamed peritoneal cavity, each time point
  human neutrophils left in the peritoneal cavity / cell death: faster rates of cell death
[7]; pHrodo-E. coli
  phagocytosis efficiency lower than that of fresh human neutrophils: about 50%
Human neutrophils; after 1 day of treatment
  healthy neutrophils remaining: about 55%
Human neutrophils; after 3 days of treatment
  healthy neutrophils remaining: ~15%
